T1: Apm1-GST (purified full-length Apm1 fused to GST) (S. pombe, UniProt Q9HFE5 1-426)
T1 construct: Apm1, µ1 subunit of the clathrin-associated adaptor protein-1 (AP-1) complex of fission yeast, full length; the methods give no details of the construct or its expression; also called GST-fused Apm1; µ1 subunit of the AP-1 complex; source: purified; not shown: GST, C-terminal, kept
T1 sequence (looked up): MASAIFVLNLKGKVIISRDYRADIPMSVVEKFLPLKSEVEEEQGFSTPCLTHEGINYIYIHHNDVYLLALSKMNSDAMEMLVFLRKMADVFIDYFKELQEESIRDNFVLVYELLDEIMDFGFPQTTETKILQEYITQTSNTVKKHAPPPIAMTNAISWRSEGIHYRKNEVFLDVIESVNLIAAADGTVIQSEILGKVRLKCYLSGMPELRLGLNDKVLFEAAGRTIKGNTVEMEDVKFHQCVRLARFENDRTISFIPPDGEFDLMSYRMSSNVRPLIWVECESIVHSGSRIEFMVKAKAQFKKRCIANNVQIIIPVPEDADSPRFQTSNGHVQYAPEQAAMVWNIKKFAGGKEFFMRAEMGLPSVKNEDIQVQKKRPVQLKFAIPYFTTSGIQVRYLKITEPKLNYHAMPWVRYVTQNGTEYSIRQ


Key:
[1] = target: T1, Apm1-GST (purified full-length Apm1 …); experiment: affinity capillary electrophoresis; GFP-fused Rho3 sample migrating in 50 mM phosphate buffer pH 6.8 containing Apm1-GST at 100 µg/ml (control: GST-Rho3 at 100 µg/ml); 15 kV, 25°C, laser-induced fluorescence detection; migration time-shift = t(control) - t(affinity)
[2] = target: T1, Apm1-GST (purified full-length Apm1 …); experiment: affinity capillary electrophoresis; GFP-fused Rho3 sample migrating in 50 mM phosphate buffer pH 6.8 containing Apm1-GST at 200 µg/ml (control: GST-Rho3 at 200 µg/ml); 15 kV, 25°C, laser-induced fluorescence detection; migration time-shift = t(control) - t(affinity)

Row | Binder | migration time-shift [1] [min] | migration time-shift [2] [min]
1 | GFP-Rho3 (wild-type Rho3 fused to GFP) (natural protein, S. pombe, UniProt O13928 1-205, looked up, Rho3, Rho-family small GTPase of S. pombe (SPAC23C4.08); complete open reading frame amplified from genomic DNA, first methionine as in the Sanger Institute database; The name GFP-Rho3 puts GFP at the N-terminus, but the methods say the ORF 'was ligated to the N-terminus of the GFP'; also called GFP-fused Rho3; source: S. pombe cells, overexpressed from the inducible nmt1 promoter, …) MSSCFGSKKKPIYRKIVILGDGAAGKTSLLNVFTKGYFPQVYEPTIFENYIHDIFVDGNSIELSLWDTAGQEEYDQLRSLSYSDTHVIMICFAVDSRDSLENVITKWLPEVSSNCPGVKLVLVALKCDLRGADEEQVDHSKIIDYEEGLAAAKKINAVRYLECSAKLNRGVNEAFTEAARVALAAQPRGTKDGADESHGTGCIIA | 0.45 | 0.84
2 | GFP-Rho3E48V (effector domain mutant of Rho3 fused to GFP) (natural protein, S. pombe, UniProt O13928 1-205, looked up, Rho3 of S. pombe (SPAC23C4.08), complete open reading frame, Glu48 changed to Val by site-directed mutagenesis; Analogue of the budding yeast rho3-V51 mutant; also called Rho3EV; GFP-Rho3EV; source: S. pombe cells, overexpressed from the inducible nmt1 promoter, in lysate (pull-down); not shown: GFP (S65T), N-terminal, kept) MSSCFGSKKKPIYRKIVILGDGAAGKTSLLNVFTKGYFPQVYEPTIFVNYIHDIFVDGNSIELSLWDTAGQEEYDQLRSLSYSDTHVIMICFAVDSRDSLENVITKWLPEVSSNCPGVKLVLVALKCDLRGADEEQVDHSKIIDYEEGLAAAKKINAVRYLECSAKLNRGVNEAFTEAARVALAAQPRGTKDGADESHGTGCIIA | 0.25 | 0.82
3 | GFP-Rho3G22V (GTP-locked variant of Rho3 fused to GFP) (natural protein, S. pombe, UniProt O13928 1-205, looked up, Rho3 of S. pombe (SPAC23C4.08), complete open reading frame, Gly22 changed to Val by site-directed mutagenesis; also called Rho3GV; GFP-Rho3GV; source: S. pombe cells, overexpressed from the inducible nmt1 promoter, in lysate (pull-down); not shown: GFP (S65T), N-terminal, kept) MSSCFGSKKKPIYRKIVILGDVAAGKTSLLNVFTKGYFPQVYEPTIFENYIHDIFVDGNSIELSLWDTAGQEEYDQLRSLSYSDTHVIMICFAVDSRDSLENVITKWLPEVSSNCPGVKLVLVALKCDLRGADEEQVDHSKIIDYEEGLAAAKKINAVRYLECSAKLNRGVNEAFTEAARVALAAQPRGTKDGADESHGTGCIIA | 1.33 | 0.94

From article PMC3033427, “Role of the Small GTPase Rho3 in Golgi/Endosome Trafficking through Functional Interaction with Adaptin in Fission Yeast” (PLoS ONE, 2011)
